Results from patent US20050287148A1.

What was measured:
the best Ab2 = assay: unlabeled 14G2a competing with plate-bound 14G2a for 125I-labeled Ab2
[1] = molecular target: monoclonal anti-GD2 antibody 14G2a; assay: competition RIA, 5 µl Ab2 hybridoma culture supernatant, 125I-14G2a on GD2-positive M21/P6 cells
[2] = molecular target: monoclonal anti-GD2 antibody 14G2a; assay: competition assay, Ab2 against 14G2a binding to GD2-expressing M21/P6 cells
[3] = molecular target: monoclonal anti-GD2 antibody 14G2a; assay: competition RIA, Ab2 mixed with 125I-14G2a, M21/P6 cell monolayer

Molecule: monoclonal anti-GD2 antibody 14G2a
- % inhibition (the best Ab2): > 90%

B1: monoclonal anti-idiotype antibody 1A7 (antibody, V domains shown)
VH: QVQVKESGPFLVPPSQSLSITCTVSGFSLTTYGVSWIRQPPGKGLEWLGAIWGDGTTNYHSALISRLSISKDNSKSQVFLKLNSLQTDDTATYYCAKLGNYDALDYWGQGTSVTVSS
VL: DVFMTQTPLSLPVSLGDQASISCRSSQSIVHSNGNTYLEWYLQKPGQSPNLLIYFVSNRFSGVPDRFSGSGSGTDFTLKISRVEAEDLGVYYCFQGSHVPWTFGGGTKLEIKR
- % inhibition of binding of radiolabeled 14G2a to M21/P6 cells [1]: > 70%
- % inhibition of binding of 14G2a to M21/P6 cells [2]: > 75%
- lowest amount that inhibits 14G2a binding to GD2 expressing cells [3]: 25 ng
